Experimental data published in patent publication US6887468B1 (Board of Regents, The University of Texas System, priority 1999, dated 2005).

Columns and labels:
[1] = test system: Bend3 mouse endothelial cells; ABAE, bovine aortic endothelial cells; HUVEC, human umbilical vein endothelial cells; assay: Direct binding of biotinylated 6-His endostatin to endothelial cells in vitro; type: cell-based; settings: three endothelial cell types
Description: Binding was detected using streptavidin-peroxidase in conjunction with O-phenylenediamine (OPD) and the absorbance read at 490 nm.

[2] = GUS enzymatic activity (cleavage of substrate); type: biochemical
Description: The 6-His GUS was pure based upon SDS-PAGE, where it ran as a single band of 75 kDa band. On gel filtration columns, the 6-His GUS runs as a tetramer of about 300 kDa.
The biological activity of each component of the 2C3-GUS conjugate was confirmed.

B1: (Biotinylated 6-His) endostatin: mouse endostatin with N-terminal 6×histidine tag expressed in E. coli, biotinylated (protein, UniProt P39060 1572-1754, looked up)
Endostatin: HSHRDFQPVLHLVALNSPLSGGMRGIRGADFQCFQQARAVGLAGTFRAFLSSRLQDLYSIVRRADRAAVPIVNLKDELLFPSWEALFSGSEGPLKPGARIFSFDGKDVLRHPTWPQKSVWHGSDPNGRRLTESYCETWRTEAPSATGQASSLLGGRLLGQSAASCHHAYIVLCIENSFMTASK
modifications: Endostatin biotin label, His6 tag
[1]
  Binding to endothelial cells in vitro: bound in a saturable fashion

B2: 6-His GUS: E. coli β-glucuronidase with N-terminal 6×histidine tag (protein, UniProt P05804 1-603, looked up)
Beta-glucuronidase: MLRPVETPTREIKKLDGLWAFSLDRENCGIDQRWWESALQESRAIAVPGSFNDQFADADIRNYAGNVWYQREVFIPKGWAGQRIVLRFDAVTHYGKVWVNNQEVMEHQGGYTPFEADVTPYVIAGKSVRITVCVNNELNWQTIPPGMVITDENGKKKQSYFHDFFNYAGIHRSVMLYTTPNTWVDDITVVTHVAQDCNHASVDWQVVANGDVSVELRDADQQVVATGQGTSGTLQVVNPHLWQPGEGYLYELCVTAKSQTECDIYPLRVGIRSVAVKGEQFLINHKPFYFTGFGRHEDADLRGKGFDNVLMVHDHALMDWIGANSYRTSHYPYAEEMLDWADEHGIVVIDETAAVGFNLSLGIGFEAGNKPKELYSEEAVNGETQQAHLQAIKELIARDKNHPSVVMWSIANEPDTRPQGAREYFAPLAEATRKLDPTRPITCVNVMFCDAHTDTISDLFDVLCLNRYYGWYVQSGDLETAEKVLEKELLAWQEKLHQPIIITEYGVDTLAGLHSMYTDMWSEEYQCAWLDMYHRVFDRVSAVVGEQVWNFADFATSQGILRVGGNKKGIFTRDRKPKSAAFLLQKRWTGMNFGEKPQQGGKQ
modifications: His6 tag
[2]
  Enzymatic activity of GUS: enzymatically active
